Data from publication PMC13186983.
Each block holds one substance with its values, some of them ahead of it.

Columns and labels:
[1] = molecular target: T1, Rpt3 (ATPase subunit of the yeast 26S proteasome) (S. cerevisiae) (UniProt P33298)
T1 sequence: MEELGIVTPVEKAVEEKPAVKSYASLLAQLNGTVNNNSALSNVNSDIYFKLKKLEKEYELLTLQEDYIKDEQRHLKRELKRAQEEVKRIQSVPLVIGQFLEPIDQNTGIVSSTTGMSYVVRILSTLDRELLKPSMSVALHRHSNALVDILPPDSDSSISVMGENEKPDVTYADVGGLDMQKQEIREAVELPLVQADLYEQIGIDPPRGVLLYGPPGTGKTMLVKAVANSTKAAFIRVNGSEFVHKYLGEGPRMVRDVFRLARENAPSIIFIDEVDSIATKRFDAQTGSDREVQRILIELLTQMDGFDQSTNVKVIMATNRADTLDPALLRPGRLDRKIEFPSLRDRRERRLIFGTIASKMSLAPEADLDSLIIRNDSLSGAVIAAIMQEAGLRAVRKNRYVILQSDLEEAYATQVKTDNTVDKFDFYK

[2] = molecular target: T1, Rpt3 (ATPase subunit of the yeast 26S proteasome) (S. cerevisiae); remark: listed apart in the source
[3] = molecular target: YA6-mutant 26S proteasome, reconstituted, LD655 acceptor-labeled on Rpt1, biotinylated core (S. cerevisiae | yeast) (UniProt P33299)
[4] = molecular target: YA4-mutant 26S proteasome, reconstituted, LD655 acceptor-labeled on Rpt1, biotinylated core (S. cerevisiae | yeast) (UniProt P33299)
[5] = molecular target: wild-type 26S proteasome, reconstituted, LD655 acceptor-labeled on Rpt1, biotinylated core (S. cerevisiae | yeast) (UniProt P33299)
[6] = molecular target: YA6-mutant 26S proteasome, reconstituted, LD655 acceptor-labeled on Rpt1, biotinylated core (S. cerevisiae | yeast) (UniProt P33299); remark: listed apart in the source
[7] = molecular target: YA4-mutant 26S proteasome, reconstituted, LD655 acceptor-labeled on Rpt1, biotinylated core (S. cerevisiae | yeast) (UniProt P33299); remark: listed apart in the source
[8] = molecular target: wild-type 26S proteasome, reconstituted, LD655 acceptor-labeled on Rpt1, biotinylated core (S. cerevisiae | yeast) (UniProt P33299); remark: listed apart in the source

basal ATPase rate of the reconstituted proteasome with Rpt6 E140A (NADH-coupled assay) [1]: 108 min⁻¹
Substance: Rpt6 E140A (from UniProt Q01939 1-405) (natural protein)

basal ATPase rate of the reconstituted proteasome with Rpt6 K141A (NADH-coupled assay) [1]: 87 min⁻¹
Substance: Rpt6 K141A (from UniProt Q01939 1-405) (natural protein)

basal ATPase rate of the reconstituted YA6 proteasome (NADH-coupled assay) [2]: 101 min⁻¹
Substance: Rpt6 with the pore-1 loop Tyr to Ala mutation (YA6) (from UniProt Q01939 1-405) (natural protein)

frequency of terminal release of titin I27 during the unfolding dwell, single-molecule FRET [3]: 33.3% | frequency of terminal release of titin I27 during the unfolding dwell, single-molecule FRET [4]: 37.5% | frequency of terminal release of titin I27 during the unfolding dwell, single-molecule FRET [5]: 18.1%
Substance: ubiquitinated titin I27 substrate, LD555 donor-labeled (from UniProt P0CG63 1-76)

combined time constant for substrate binding, tail insertion and engagement; bulk stopped-flow FRET, Cy3-labeled proteasome with oPA, 2 µM Cy5-labeled substrate, 25 °C [6]: 18 s | combined time constant for substrate binding, tail insertion and engagement; bulk stopped-flow FRET, Cy3-labeled proteasome with oPA, 2 µM Cy5-labeled substrate, 25 °C [7]: 14.3 s | combined time constant for substrate binding, tail insertion and engagement; bulk stopped-flow FRET, Cy3-labeled proteasome with oPA, 2 µM Cy5-labeled substrate, 25 °C [8]: 6.8 s
Substance: ubiquitinated titin I27^V15P substrate, LD555 donor-labeled (from UniProt P0CG63 1-76)
